± gives the standard deviation of the averaged measurements.
Key:
hTERT-HMEC = test: percentage of EdU-negative (G0-arrested) nuclei per well, 72 h; higher = more G0 arrest; details: reference: sequence is the full UniProt precursor, the tested protein was the secreted form or ectodomain
MCF7 = test: as above; details: reference: sequence is the full UniProt precursor, the tested protein was the secreted form or ectodomain
[1] = protein concentration 0.02535 µM
[2] = protein concentration 0.2535 µM
[3] = protein concentration 0.0225 µM
[4] = protein concentration 0.03125 µM
[5] = protein concentration 0.3125 µM
[6] = protein concentration 0.0357143 µM
[7] = protein concentration 0.357143 µM
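Further: secreted proteins added to cultured cells, EdU pulse at the end, nuclei found by Hoechst imaging, EdU status from nuclear versus surrounding ring intensity ratio, PBS as neutral control.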

Sequence	percentage of EdU-negative (hTERT-HMEC; [3])	percentage of EdU-negative (hTERT-HMEC; protein concentration 0.225 µM)	percentage of EdU-negative (MCF7; [3])	percentage of EdU-negative (MCF7; protein concentration 0.225 µM)	further results
MGFWILAILTILMYSTAAKFSKQSWGLENEALIVRCPRQGKPSYTVDWYYSQTNKSIPTQERNRVFASGQLLKFLPAAVADSGIYTCIVRSPTFNRTGYANVTIYKKQSDCNVPDYLMYSTVSGSEKNSKIYCPTIDLYNWTAPLEWFKNCQALQGSRYRAHKSFLVIDNVMTEDAGDYTCKFIHNENGANYSVTATRSFTVKDEQGFSLFPVIGAPAQNEIKEVEIGKNANLTCSACFGKGTQFLAAVLWQLNGTKITDFGEPRIQQEEGQNQSFSNGLACLDMVLRIADVKEEDLLLQYDCLALNLHGLRRHTVRLSRKNPIDHHSIYCIIAVCSVFLMLINVLVIILKMFWIEATLLWRDIAKPYKTRNDGKLYDAYVVYPRNYKSSTDGASRVEHFVHQILPDVLENKCGYTLCIYGRDMLPGEDVVTAVETNIRKSRRHIFILTPQITHNKEFAYEQEVALHCALIQNDAKVILIEMEALSELDMLQAEALQDSLQHLMKVQGTIKWREDHIANKRSLNSKFWKHVRYQMPVPSKIPRKASSLTPLAAQKQ					percentage of EdU-negative (hTERT-HMEC; [1]): 5.463 ± 0.046%; percentage of EdU-negative (hTERT-HMEC; [2]): 5.2 ± 0.66%; percentage of EdU-negative (MCF7; [1]): 23.7 ± 0.79%; percentage of EdU-negative (MCF7; [2]): 25.9 ± 0.45%
MWTSGRMSNAKNWLGLGMSLYFWGLMDLTTTVLSDTPTPQGELEALLSDKPQSHQRTKRSWVWNQFFVLEEYTGTDPLYVGKLHSDMDRGDGSIKYILSGEGAGIVFTIDDTTGDIHAIQRLDREERAQYTLRAQALDRRTGRPMEPESEFIIKIQDINDNEPKFLDGPYVATVPEMSPVGTSVIQVTATDADDPTYGNSARVVYSILQGQPYFSVDSKTGVIRTALMNMDREAKEYYEVIIQAKDMGGQLGGLAGTTTVNITLSDVNDNPPRFPQKHYQMSVLESAPISSTVGRVFAKDLDEGINAEMKYTIVDGDGADAFDISTDPNFQVGIITVKKPLSFESKKSYTLKVEGANPHLEMRFLNLGPFQDTTTVHISVEDVDEPPVFEPGFYFVEVPEDVAIGTTIQIISAKDPDVTNNSIRYSIDRSSDPGRFFYVDITTGALMTARPLDREEFSWHNITVLAMEMNNPSQVGSVPVTIKVLDVNDNAPEFPRFYEAFVCENAKAGQLIQTVSAVDQDDPRNGQHFYYSLAPEAANNPNFTIRDNQDNTARILTRRSGFRQQEQSVFHLPILIADSGQPVLSSTGTLTIQVCSCDDDGHVMSCSPEAYMLPVSLSRGALIAILACIFVLLVLVLLILSMRRHRKQPYIIDDEENIHENIVRYDDEGGGEEDTEAFDIAAMWNPREAQAGAAPKTRQDMLPEIESLSRYVPQTCAVNSTVHSYVLAKLYEADMDLWAPPFDSLQTYMFEGDGSVAGSLSSLQSATSDSEQSFDFLTDWGPRFRKLAELYGASEGPAPLW [Q9HBT6]	3.9 ± 0.76%	50.2 ± 7%	28 ± 0.47%	36 ± 0.13%	
MAFDVSCFFWVVLFSAGCKVITSWDQMCIEKEANKTYNCENLGLSEIPDTLPNTTEFLEFSFNFLPTIHNRTFSRLMNLTFLDLTRCQINWIHEDTFQSHHQLSTLVLTGNPLIFMAETSLNGPKSLKHLFLIQTGISNLEFIPVHNLENLESLYLGSNHISSIKFPKDFPARNLKVLDFQNNAIHYISREDMRSLEQAINLSLNFNGNNVKGIELGAFDSTIFQSLNFGGTPNLSVIFNGLQNSTTQSLWLGTFEDIDDEDISSAMLKGLCEMSVESLNLQEHRFSDISSTTFQCFTQLQELDLTATHLKGLPSGMKGLNLLKKLVLSVNHFDQLCQISAANFPSLTHLYIRGNVKKLHLGVGCLEKLGNLQTLDLSHNDIEASDCCSLQLKNLSHLQTLNLSHNEPLGLQSQAFKECPQLELLDLAFTRLHINAPQSPFQNLHFLQVLNLTYCFLDTSNQHLLAGLPVLRHLNLKGNHFQDGTITKTNLLQTVGSLEVLILSSCGLLSIDQQAFHSLGKMSHVDLSHNSLTCDSIDSLSHLKGIYLNLAANSINIISPRLLPILSQQSTINLSHNPLDCTCSNIHFLTWYKENLHKLEGSEETTCANPPSLRGVKLSDVKLSCGITAIGIFFLIVFLLLLAILLFFAVKYLLRWKYQHI	5.21 ± 0.11%	7.06 ± 0.86%	27.1 ± 4.8%	29.8 ± 3.2%	
MFPFYSCWRTGLLLLLLAVAVRESWQTEEKTCDLVGEKGKESEKELALVKRLKPLFNKSFESTVGQGSDTYIYIFRVCREAGNHTSGAGLVQINKSNGKETVVGRLNETHIFNGSNWIMLIYKGGDEYDNHCGKEQRRAVVMISCNRHTLADNFNPVSEERGKVQDCFYLFEMDSSLACSPEISHLSVGSILLVTFASLVAVYVVGGFLYQRLVVGAKGMEQFPHLAFWQDLGNLVADGCDFVCRSKPRNVPAAYRGVGDDQLGEESEERDDHLLPM					percentage of EdU-negative (hTERT-HMEC; [4]): 5.26 ± 0.29%; percentage of EdU-negative (hTERT-HMEC; [5]): 5.43 ± 0.57%; percentage of EdU-negative (MCF7; [4]): 25.21 ± 0.13%; percentage of EdU-negative (MCF7; [5]): 24.8 ± 1.1%
MQPPRERLVVTGRAGWMGMGRGAGRSALGFWPTLAFLLCSFPAATSPCKILKCNSEFWSATSGSHAPASDDTPEFCAALRSYALCTRRTARTCRGDLAYHSAVHGIEDLMSQHNCSKDGPTSQPRLRTLPPAGDSQERSDSPEICHYEKSFHKHSATPNYTHCGLFGDPHLRTFTDRFQTCKVQGAWPLIDNNYLNVQVTNTPVLPGSAATATSKLTIIFKNFQECVDQKVYQAEMDELPAAFVDGSKNGGDKHGANSLKITEKVSGQHVEIQAKYIGTTIVVRQVGRYLTFAVRMPEEVVNAVEDWDSQGLYLCLRGCPLNQQIDFQAFHTNAEGTGARRLAAASPAPTAPETFPYETAVAKCKEKLPVEDLYYQACVFDLLTTGDVNFTLAAYYALEDVKMLHSNKDKLHLYERTRDLPGRAAAGLPLAPRPLLGALVPLLALLPVFC [Q96B86]	5.15 ± 0.82%	6.53 ± 1.7%	25.3 ± 1.1%	26.4 ± 2%	
MTPPERLFLPRVCGTTLHLLLLGLLLVLLPGAQGLPGVGLTPSAAQTARQHPKMHLAHSTLKPAAHLIGDPSKQNSLLWRANTDRAFLQDGFSLSNNSLLVPTSGIYFVYSQVVFSGKAYSPKATSSPLYLAHEVQLFSSQYPFHVPLLSSQKMVYPGLQEPWLHSMYHGAAFQLTQGDQLSTHTDGIPHLVLSPSTVFFGAFAL					percentage of EdU-negative (hTERT-HMEC; [6]): 6.4 ± 0.43%; percentage of EdU-negative (hTERT-HMEC; [7]): 6.94 ± 0.51%; percentage of EdU-negative (MCF7; [6]): 35.3 ± 2.4%; percentage of EdU-negative (MCF7; [7]): 42.8 ± 0.91%
